Measured values as given in paper PMC4565748 (2015).

Biological target: C3b (Homo sapiens, UniProt P01024)
Test: AlphaAssay

Sequence of C3b (P01024 23-667, chain 1 of 2): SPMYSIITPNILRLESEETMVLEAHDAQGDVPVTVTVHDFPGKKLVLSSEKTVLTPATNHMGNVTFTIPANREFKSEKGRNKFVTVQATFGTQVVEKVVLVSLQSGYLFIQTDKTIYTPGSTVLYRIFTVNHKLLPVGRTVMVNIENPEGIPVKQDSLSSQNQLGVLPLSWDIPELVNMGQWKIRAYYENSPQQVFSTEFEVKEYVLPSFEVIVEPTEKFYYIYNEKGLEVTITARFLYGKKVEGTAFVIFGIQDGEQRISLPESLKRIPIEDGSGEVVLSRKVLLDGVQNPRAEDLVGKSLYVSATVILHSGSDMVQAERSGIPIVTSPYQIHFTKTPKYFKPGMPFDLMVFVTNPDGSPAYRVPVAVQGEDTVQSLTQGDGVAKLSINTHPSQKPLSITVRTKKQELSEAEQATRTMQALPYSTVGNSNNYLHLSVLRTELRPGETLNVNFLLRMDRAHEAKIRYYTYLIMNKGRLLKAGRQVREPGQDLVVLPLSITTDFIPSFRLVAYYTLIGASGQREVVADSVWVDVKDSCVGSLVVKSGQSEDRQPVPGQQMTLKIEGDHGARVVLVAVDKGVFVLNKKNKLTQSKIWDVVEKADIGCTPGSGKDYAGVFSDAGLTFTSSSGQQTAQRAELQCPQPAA
Sequence of C3b (P01024 749-1663, chain 2 of 2): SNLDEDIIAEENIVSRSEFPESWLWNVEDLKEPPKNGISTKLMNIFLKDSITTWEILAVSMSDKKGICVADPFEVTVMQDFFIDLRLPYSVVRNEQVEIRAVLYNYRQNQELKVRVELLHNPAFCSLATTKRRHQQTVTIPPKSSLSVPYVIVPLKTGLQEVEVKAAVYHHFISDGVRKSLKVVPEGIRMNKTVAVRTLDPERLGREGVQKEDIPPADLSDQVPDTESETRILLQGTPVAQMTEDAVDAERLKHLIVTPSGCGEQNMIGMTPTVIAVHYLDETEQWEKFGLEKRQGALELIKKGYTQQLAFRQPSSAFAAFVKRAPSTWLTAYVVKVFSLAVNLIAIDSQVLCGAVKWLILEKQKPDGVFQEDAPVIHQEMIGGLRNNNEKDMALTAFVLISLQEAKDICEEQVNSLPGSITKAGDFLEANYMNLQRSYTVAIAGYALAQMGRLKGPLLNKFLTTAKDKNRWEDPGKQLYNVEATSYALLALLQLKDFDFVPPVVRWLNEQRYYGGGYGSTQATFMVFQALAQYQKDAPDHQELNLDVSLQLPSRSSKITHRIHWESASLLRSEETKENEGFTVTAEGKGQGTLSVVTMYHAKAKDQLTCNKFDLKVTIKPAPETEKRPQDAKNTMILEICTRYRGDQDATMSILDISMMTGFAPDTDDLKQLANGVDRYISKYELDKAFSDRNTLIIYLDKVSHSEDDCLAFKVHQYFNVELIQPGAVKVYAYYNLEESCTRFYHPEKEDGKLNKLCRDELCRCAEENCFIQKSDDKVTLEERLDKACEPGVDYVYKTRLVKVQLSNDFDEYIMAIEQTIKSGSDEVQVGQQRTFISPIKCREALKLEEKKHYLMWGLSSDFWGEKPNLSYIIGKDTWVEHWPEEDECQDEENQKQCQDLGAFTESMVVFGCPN

B1: SCIN-A (protein)
chain: STSLPTSNEYQNEKLANELKSLLDELNVNELATGSLNTYYKRTIKISGQKAMYALKSKDFKKMSEAKYQLQKIYNEIDEALKSKY
Kd: 74 nM
